Test: yeast display, Sf9 membrane polyspecificity reagent, FACS + sequencing; frameworks hold sequencing errors
Method in brief: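 A nanobody's polyreactivity label depends on the gate it was sorted from. Yeast display cells were stained with 10% biotinylated, detergent-solubilized Sf9 membrane reagent for 1 hour at 4 °C, enriched on streptavidin microbeads and sorted by FACS. The low and high (top ~1%) gates were set on anti-HA fluorescence for expression and streptavidin fluorescence for reagent binding.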

Row | Sequence | polyreactivity (PSR sort gate)
1 | QVQLVESGGGLVQAGGSLRLSCAASGRIFSRYVRGWYRQAPGKEREFVASITWSGSSTYYADSVKGRFTISRDNAKNTVYLQMNSLKPEDTAVYYCAALGLLSPSPWGTHISEYDSWGQGTQVTVSS | low polyreactivity
2 | QVQLVESGGGLVQAGGSLRLSCAASGRIFSSNAMGWYRQAPGKERELVASISSTGSTKYADSVKGRFTISRDKAKNTVYLQMNSLKQEDSAVYYCAAGRYLWHFTFDYWGQGTQVTVSS | low polyreactivity
3 | QVQLVESGGGLVQAGGSLRLSCAASGRIFSSNAMGWYRQAPGTERELVASLSSTGSPKYADSVKGRFTISRDNAKNTVYLQMNSLIPEDTAVYYCAATQVRRGPAWGRDYWGQGTQVTVSS | low polyreactivity
4 | QVQLVESGGGLVQAGGSLRLSCAASGRIFSSYAMGWYRKAPGKERELVAAIRRGGGSTSYADSVKGRFTISRDNAKNTVYLQMNSLKPEDTAVYYCAADSPRGQVHYIGGYWGQGTQVTVSS | low polyreactivity
5 | QVQLVESGGGLVQAGGSLRLSCAASGRIFSSYAMGWYRQAPGKERELVARISYSGGSTYYADSVKGRFTISRDNAKNTVYLQMNSLKPEDTAVYYCNARYYGYGAGYRPYDYWGQGTQVTVSS | high polyreactivity
6 | QVQLVESGGGLVQAGGSLRLSCAASGRIFSTNAMGWYLQAPGKERELVAGINSGGSTNYADSVKGRFTISRDNAKNTVYLQMNSLKPEDTAVYYCNASLPVDSWYVQYGVDYDYWGQVTQVTVSS | low polyreactivity
7 | QVQLVESGGGLVQAGGSLRLSCAASGRIFSTYAMGWYRQAPGKERELVAAINSIGGRTYYADSVKGRFTISRDNAKNTVYLQMNSMKPEDTAVYYCAASRFRTGQEDDYWGQGTQVTVSS | high polyreactivity
8 | QVQLVESGGGLVQAGGSLRLSCAASGRIFSTYAMVWYREAPGKEMELVAAINKIGGSTYYADSVKGRFTISRDNAKNTVYLQMNSLKPEDTAVYYCAADAPYYPFRRYYYWGQGTQVTVSS | low polyreactivity
9 | QVQLVESGGGLVQAGGSLRLSCAASGRIFSTYVMGWYRQAPGKERELVAAIRNNGGSTYYADSVKGRFTISRDNAKNTVYLQMNSLKPEDTAVYFCAKKSFFTGRWWYDYWGQGTQVTVSS | high polyreactivity
10 | QVQLVESGGGLVQAGGSLRLSCAASGRIFSTYVMGWYRQAPGKERELVAAITWSGGSTYYADSVKGRFTISRDNEKNTVYLQMNSLKPEDTAVYYCAADEIYGYDYWGQGTQVTVSS | high polyreactivity
11 | QVQLVESGGGLVQAGGSLRLSCAASGRIFSVNAMGWYRQAPGKERELVAAITPGASTNYADSVKGRFTISRDNAKNTVYLQMNSLKPEDTAVYYCAAGWVSFEDWVLGSYYEFDYWGQGTQVTVSS | low polyreactivity
12 | QVQLVESGGGLVQAGGSLRLSCAASGRIFSVYALGWYRQAPGKERELVAAISSGDSTYYADSVKGRFTISRDNAKNTVYLQMNSLKPDDTAVFYCAATFPFHDGDYWGQGTQVTVSS | low polyreactivity
13 | QVQLVESGGGLVQAGGSLRLSCAASGRIFSWNAMGWYRQAPGKERELVARITNGGSTYYADSVKGRFTISRDNAKNTVYLQMNSLKPEDTAVYYCAAKYRYYWSSKSKGDYWGQGTQVTVSS | high polyreactivity
14 | QVQLVESGGGLVQAGGSLRLSCAASGRIFSYNAMGFYRQAPGKERELVAGITYGSTYYADSVKGRFTISRDNAKNTVYLQMNSLKPEDTAVYYCAADLSYTSVHGYRSDTLMDYWGQGTQVTVSS | low polyreactivity
15 | QVQLVESGGGLVQAGGSLRLSCAASGRIFSYNAMGWYRPAPGKERELVASISWSGGRTYYADSVKGRFTISRDNAKNTVYLQMNSLKPEDTAVYYCAVRYRGYGYDWGQGTQVTVSS | high polyreactivity
16 | QVQLVESGGGLVQAGGSLRLSCAASGRIFSYNAMGWYRQAPGKERELVAAISSDGSTYYADSVKGRFTISRDNAKNTVYLQMNSLKPEDTAVYYCNADPGLYDVLYSSGDFDYWGQGTQVTVSS | low polyreactivity
17 | QVQLVESGGGLVQAGGSLRLSCAASGRIFSYNAMGWYRQAPGKERELVAAISYRGGSTYYADSVKGRFTISRDNAKNTVYLQMNSLNPEDTAVYYCNAEAYYPYGYDYWGQGTQVTVSS | low polyreactivity
18 | QVQLVESGGGLVQAGGSLRLSCAASGRIFSYNAMGWYRQAPGKERELVAGITSGGRTYYADSVKGRFTISRDNAKNTVYLQMNSLKPEDTAVHYCAASYVPARTRYYYWGQGTQVTVSS | high polyreactivity
19 | QVQLVESGGGLVQAGGSLRLSCAASGRIFSYNTMGWYRQAPGKERELVAAISWSGGSTSYADSVKGRFTISRDNAKNTVYLQMNSLKPEDTAVYYCATGSKRNPFYRGNYWGQGTQVTVSS | low polyreactivity
20 | QVQLVESGGGLVQAGGSLRLSCAASGRIFSYTAMGWYRQAPGKERELVAAITRVDNTNYADSVKGRFTISRDNAKNTVYLQMNSLKPEDTAVYYCNARQHQVRWWLREFDYWGQGTQVTVSS | low polyreactivity
21 | QVQLVESGGGLVQAGGSLRLSCAASGRIFSYTARGWSRQAPGKERELVAAISGSTGNTYYADSVKGRFTISRDNAKTTLYLQMNSLKPEDTAVYYCNKLGYKYDYWGQGTQVTVSS | high polyreactivity
22 | QVQLVESGGGLVQAGGSLRLSCAASGRIFSYYAMGWYRQAPGKERELVAAITSGGSTYYADSVKGRFTISRDNAKNTVYLQMNSLKPEDTAVYYCNVVSDFRYYYWGQGTQVTVSS | low polyreactivity

Row | Sequence | polyreactivity (PSR sort gate)
23 | QVQLVESGGGLVQAGGSLRLSCAASGRIFSYYAMGWYRQAPGKERELVARISWRGGSTYYADSVKGRFTISRDNSKNTVYLQMNSLKPEDSAVYYCAATSPYYRTGYDYWGQGTQVTVSS | high polyreactivity
24 | QVQLVESGGGLVQAGGSLRLSCAASGRIFSYYAMGWYRQAPGKERELVASISRSGGSTYYANSVKGRFTISRDNAKNTVYLQMNSLKPEDTAVYYCNAEARYTGFAYSYFNSDYWGQGTQVTVSS | low polyreactivity
25 | QVQLVESGGGLVQAGGSLRLSCAASGRIFSYYAMGWYRQAPGKERELVATINSGGSTNYADSVKGRFTISRDNAKNTVYLQMNSLKPEDTAVYYCAASPVWWYDYWGQGTQVTVSS | low polyreactivity
26 | QVQLVESGGGLVQAGGSLRLSCAASGRIFSYYAMGWYRQAPGKERELVAVISRRGDNTYYADSVKGRFTISRDNAKNTVYLQMNSLKPEDTAVYYCAAYSWYAKDFDYWGQGTQVTVSS | high polyreactivity
27 | QVQLVESGGGLVQAGGSLRLSCAASGRIFSYYAMGWYRQAPRKERELVAAITWSGGSTYYADSVKGRFTISRDNAKNTVYLQMNSLKPEDTAVYYCAADRRRWLYYGYDYWGQGTQVTVSS | high polyreactivity
28 | QVQLVESGGGLVQAGGSLRLSCAASGRIFSYYTMGWYRQAPGKERELVAAITGSGGTTYYADSVKGRFTISRDNAKNTVYLQMNSLKPEDTAVYYCAARGYYRWAPYADWRFNYWGQGTQVTVSS | high polyreactivity
29 | QVQLVESGGGLVQAGGSLRLSCAASGRIFTANVMGWYRQAPGKERELVAAIDYSGGSTYYADSVKGRFTISRDNAKNTVYLQMNSLKPEDTAVYYCNRDDYADYYHLEYDYWGQGTQVTVSS | low polyreactivity
30 | QVQLVESGGGLVQAGGSLRLSCAASGRIFTAYAMGWYRQAPGKERELVAAISSGDSTYYADSVKGRFTISRDNAKNTVSLQMNSLKPEDTAVYYCATGVYPDFEYDSWGQGTQVTVSS | low polyreactivity
31 | QVQLVESGGGLVQAGGSLRLSCAASGRIFTDYTMGWYRQAPGKERELVAAISYSGGSTYYADSVKGRFTISRDNAKNSVYLQMNSLKPEDTAVYYCNRDPQKYRWIPRYDYWGHGTQVTVSS | low polyreactivity
32 | QVQLVESGGGLVQAGGSLRLSCAASGRIFTFYAMGWYRQAPGKERELVAAISSGGSTYYADSVKGRFTISRDNAKNTVYLQMHSLKPEDTAVYYCAAEPVWYADYDYWGQGTQVTVSS | low polyreactivity
33 | QVQLVESGGGLVQAGGSLRLSCAASGRIFTFYAMGWYRQAPGKERELVAAITSGGSTYYADSVKGRFTISRDNAKNTVYLQMNSLKPEDTAVYYCNALHHTQHDYWGQGTQVTVSS | low polyreactivity
34 | QVQLVESGGGLVQAGGSLRLSCAASGRIFTFYAMGWYRQAPGKERELVARISKRGGSTYYADSVKGRFTISRDYAKNTVYLQRNSLKPEDTAVYYCAKAYDPTTYDYWGQGTQVTVSS | high polyreactivity
35 | QVQLVESGGGLVQAGGSLRLSCAASGRIFTGNAMGWYRQAPGKERELVAAISRRGTRTYYADSVKGRFTISRDNAKNTVYLQMNSLKPEDTAVYYCATVLYKAYNDYGYWGQGTQVTVSS | high polyreactivity
36 | QVQLVESGGGLVQAGGSLRLSCAASGRIFTHNAMGGYRQAPGKERELVAAITIGGRTNYADSVKGRFTISRDNAKYTVYLQMNSLKPEDTAVYYCDRRYGTWNAYDYWGQGTLVTVSS | low polyreactivity
37 | QVQLVESGGGLVQAGGSLRLSCAASGRIFTHNAMGWYRQAPGKERELVAAITSGGRTTYADSVKGRFTISRDNAKNTVYLQRNSLKPEDTAVYYCNADTGLGSLDFDKRDYWGQGTQVTVSS | low polyreactivity
38 | QVQLVESGGGLVQAGGSLRLSCAASGRIFTKYAMGWYRQAPGKERELVATISKRSGSTYYADSVKGRFTISRDNAKNTVYLQMNSLKPEDTAVYYCARTVGYRTLLESDSWGQGTQVTVSS | high polyreactivity
39 | QVQLVESGGGLVQAGGSLRLSCAASGRIFTNYAMGWYRQAPGKERELVAAINWDGGSTYYADSVKGRFTISRDNAKNTVYLQMNSLKPVDTAVYYCAAQGGLSEYDYWGQGTQVTVSS | low polyreactivity
40 | QVQLVESGGGLVQAGGSLRLSCAASGRIFTRNAMGWCRPAPGKERELVAAITYTGANTYYADSVKGRFTISRDNAKNTVYLQMNSLKPEDTAVYYCAADGRVKGWGQGTQVTVSS | high polyreactivity
41 | QVQLVESGGGLVQAGGSLRLSCAASGRIFTRYAMGWSRQAPGKERELVAAISSGGSTYYADSVKGRYTISRDKAKNTVYLQMNSLKPEDTAVYYCAAGTWWWYKFNYWGQGTQVTVSS | high polyreactivity
42 | QVQLVESGGGLVQAGGSLRLSCAASGRIFTRYAMGWYCQAPGNDRELVAVIRDGSTYYADSVKGRFTISRDNGKNTVYLQMNSLKPEDTAVYYCRYDIWDWWSGAYDYWGQGTQVTVSS | low polyreactivity
43 | QVQLVESGGGLVQAGGSLRLSCAASGRIFTRYAMGWYRQAPGKARELVAAITSSGGRTYYADSVKGRFTISRDNAKNTVYLQMNSLKQEDTAVYYCATGYINSYYYWGQGTQVTVSS | high polyreactivity
